Experimental data as given in US20230382979A1 (ADAPTIVE BIOTECHNOLOGIES, published 2023).
Where a chain is given by its changes, count along the chain named.

B1: antibody 4441 (antibody, V domains shown)
VH: EVQLVESGGGLVQPGRSLRLSCAASGLTFEDYAMHWVRQPPGKGLEWVSGVSWNSGTIGYADSVKGRFTISRDNAKNSLYLHMRSLGAEDTAMYYCAKDMGGRFSFFSLENDAFDIWGQGTMVIVSS
VL: SYELTQPPSVSVSPGQTARITCSGDALPKQSTYWYQQKPGQAPVLVIYKDIERPSGIPERFSGSSSGTTVTLTISGVQAEDEADYYCQSADSSDTYVFGTGTKVTVL
B2: antibody 2794 (antibody, V domains shown)
VH: QVQLVQSGAEVKKPGSSLKVSCKASGGTFNNFAISWVRQAPGQGPEWMGRINPILSAAKYAQKFQGRLTITADKSTTTAYMELSSLRSEDTAVYYCAPTGTGESWWFDPWGQGTLVTVSS
VL: QSVLTQPPSASGTPGQRVTISCSGSSSNIGTNYVYWYQQLPGTAPKVLIYGNNQRPSGVPDRFSGSKSGSSASLAISGLRSEDEADYYCAAWDDSLSGPVFGGGTKLTVL
B3: antibody 1814 (antibody, V domains shown)
VH: QVQLQESGPGLVKPSETLSLTCSVSGGSINYYYWSWIRQTPGQGLEWIGFIYSSGTTNYNPSLKSRVTMSKDTAKKQFSLKLTSVTAADSAVYYCARHSRSCTNGVCQTYYYYALDVWGHGTTVTVSS
VL: QSVLTQPPSVSGAPGQRVTISCTGSGSNIGSGYDVHWYQQLPGRAPKLLIYRNRNRPSGVPDRFSGSKSGTSASLAIAGLQSEDEGDYFCQSYDGRLGESAVFGGGTRLTVL
B4: antibody 1815 (antibody, V domains shown)
VH: B3 VH with Q39K, T40S, Q43K, T68S, K71I, D72G, A74S, K76R, T83S
VL: QSVLTQPPSVSGAPGQRVTISCTGSSSNIGAGYDVHWYQQLPGTAPKLLIYANTHRPSGVPDRFSASKSGTSASLAIAGLQAEDEGDYYCQSYDGSLSESAVFGGGTRLTVL
B5: antibody 1859 (antibody, V domains shown)
VH: EVQLVESGGGLVKPGGSLRLSCAASGFSFNTYTMNWVRQAPGKGLEWVSYISSSSSYKYYSDSVKGRFSVSRDNAKKSLYLQMNGLRAEDTAVYYCARDGYCPNGVCTYYGMDVWGQGTTVTVSL
VL: EIVMTQSPATLSVSPGERATLSCRASQSVSSNLAWYQQKPGQAPRLLIYGASTRATGIPARFSGSGSGTEFTLTISGLQSEDFAVYFCQQYSKWPPAYTFGQGTKLEIK
B6: antibody 1871 (antibody, V domains shown)
VH: B5 VH with A23V, N30S, T31I, T33S, S61A, K77N, M83L, N104K, L125A
VL: EIVMTQSPATLSVSPGERVTLSCRASQSVRSRLAWFQQKPGQAPRLLIYDASIRATGIPARFSGSGSGTEFTLIISSLQSEDFAVYYCQQYDNWPPAYTFGQGTKLEIK
B7: antibody 1872 (antibody, V domains shown)
VH: B5 VH with N30S, T31L, K58R, S61A, K77N, S78A, N104R, L125A
VL: B6 VL with V19A, R30G, F36Y, S52T, E70D, I74T, S77G, Q90R, D92N

The binders below were run against SARS-CoV-2 spike protein, B1.351 (beta variant), borne on lentiviral pseudovirus (SARS-CoV-2, B1.351) (assay: cell-based or functional assay).

Q: How did the “Pseudo Neut, B1.351 IC50 (pM)” value turn out when B1 was run?
A: 2320 pM

Q: Which “Pseudo Neut, B1.351 IC50 (pM)” value does the source give for B2 here?
A: 428 pM

Q: With B3 as the binder, how does the “Pseudo Neut, B1.351 IC50 (pM)” value read?
A: 32 pM

Q: How did the “Pseudo Neut, B1.351 IC50 (pM)” value turn out when B4 was run?
A: 345 pM

Q: With B5 as the binder, how does the “Pseudo Neut, B1.351 IC50 (pM)” value read?
A: 73 pM

Q: How did the “Pseudo Neut, B1.351 IC50 (pM)” value turn out when B6 was run?
A: 208 pM

Q: B7 was tested. Which “Pseudo Neut, B1.351 IC50 (pM)” value did it give?
A: 75 pM

What follows are binders tested against SARS-CoV-2 spike protein, B1.1.7 (alpha variant), borne on lentiviral pseudovirus (SARS-CoV-2, B1.1.7) (assay: cell-based or functional assay).

Q: For B1, which “Pseudo Neut, B1.1.7 IC50 (pM)” value is on record?
A: ~13 pM

Q: How did the “Pseudo Neut, B1.1.7 IC50 (pM)” value turn out when B2 was run?
A: 148 pM

Q: With B3 as the binder, how does the “Pseudo Neut, B1.1.7 IC50 (pM)” value read?
A: 237 pM

Q: Which “Pseudo Neut, B1.1.7 IC50 (pM)” value does the source give for B5 here?
A: 230 pM

Q: For B6, which “Pseudo Neut, B1.1.7 IC50 (pM)” value is on record?
A: 110 pM

Q: B7 was tested. Which “Pseudo Neut, B1.1.7 IC50 (pM)” value did it give?
A: 130 pM

The binders below were run against T1, Receptor-binding domain (RBD) of the SARS-CoV-2 spike protein, WA01/2020 strain (SARS-CoV-2, WA01/2020 strain, UniProt P0DTC2 319-541) (assay: dose-response ELISA on coated antigen).

Q: B1 was tested. Which EC50 did it give?
A: 0.05 nM

Q: For B2, which EC50 is on record?
A: 0.022 nM

What follows are binders tested against T2, SARS-CoV-2 spike protein on live virus, strain USA-WA1/2020 (SARS-CoV-2, WA01/2020 strain, UniProt P0DTC2 14-1273) (assay: cell-based or functional assay).

Q: With B1 as the binder, how does the “Live Neut, WA1/2020 IC50 (pM)” value read?
A: 85 pM

Q: Which “Live Neut, WA1/2020 IC50 (pM)” value does the source give for B2 here?
A: 17 pM

What follows are binders tested against T1, Receptor-binding domain (RBD) of the … (assay: SPR (Biacore 8K), antigen immobilized, antibody injected).

Q: With B1 as the binder, how does the Kd read?
A: 0.022 nM

Q: B2 was tested. Which Kd did it give?
A: 0.232 nM

Each binder was assayed against T1, Receptor-binding domain (RBD) of the … (assay: ELISA, antibody blocks RBD binding to human ACE2).

Q: How did the IC50 turn out when B1 was run?
A: 1.02 nM

Q: B2 was tested. Which IC50 did it give?
A: 0.137 nM

Each binder was assayed against T1, Receptor-binding domain (RBD) of the … (assay: ELISA screening, antibody concentration not given).

Q: Does B3 bind?
A: no binding (tested: not printed)

Q: Does B4 bind?
A: no binding (tested: not printed)

Q: Does B5 bind?
A: no binding (tested: not printed)

Q: Does B6 bind?
A: no binding (tested: not printed)

Q: Does B7 bind?
A: no binding (tested: not printed)

Molecular target: T2, SARS-CoV-2 spike protein on live virus, …
Test: cell-based or functional assay
Remark: another data set of the same source

Q: How did the “IC50, live virus micro-neutralization WA1/2020” value turn out when B1 was run?
A: 0.058 nM

Q: For B2, which “IC50, live virus micro-neutralization WA1/2020” value is on record?
A: 0.055 nM
